Ends that are not written are not given here.

This passage reports IC50 results from patent publication US20230192767A1 (MEDIKINE, published 2023).

Assay [1] concerns the target T1, human IL-2Rβ (CD122 protein, Fc Tag) (27-239) (human, UniProt P14784 27-239).
T1 construct: range 27-239; Bought protein; also called IL-2Rβ subunit; IL-2Rβ-Fc; not shown: Fc Tag of the bought protein (ACRObiosystems ILB-H5253)
T1 sequence (looked up): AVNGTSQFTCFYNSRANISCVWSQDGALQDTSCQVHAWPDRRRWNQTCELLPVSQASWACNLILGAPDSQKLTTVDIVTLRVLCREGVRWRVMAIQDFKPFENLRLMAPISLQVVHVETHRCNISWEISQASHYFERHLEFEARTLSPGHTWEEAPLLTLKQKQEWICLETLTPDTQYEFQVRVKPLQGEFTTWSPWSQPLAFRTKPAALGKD
Put plainly: IC50, method not told in the paragraph.

Assay [2] addresses T2, human IL-2Rγc (CD132 protein, Fc Tag) (23-254) (human, UniProt P31785 23-254).
T2 construct: range 23-254; Bought protein; also called IL-2Rγc subunit; γc subunit; not shown: Fc Tag of the bought protein (ACRObiosystems ILG-H5256)
T2 sequence (looked up): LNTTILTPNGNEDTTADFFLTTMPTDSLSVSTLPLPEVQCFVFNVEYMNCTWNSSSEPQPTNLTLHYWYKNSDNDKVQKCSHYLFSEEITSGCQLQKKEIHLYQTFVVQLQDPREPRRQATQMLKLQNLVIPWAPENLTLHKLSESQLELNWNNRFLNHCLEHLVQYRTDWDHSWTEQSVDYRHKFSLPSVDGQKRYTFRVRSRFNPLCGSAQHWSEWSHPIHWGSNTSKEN
Put plainly: IC50, method not told in the paragraph.

The molecule RSCYYKRPRLWCSE [IL-2Rβ ligand SEQ ID NO: 1044] registered an IC50 in assay [1] of less than 10 µM.
In assay [2], KVCEMWGGVLLCWN [IL-2Rγc ligand SEQ ID NO: 198] returned an IC50 of less than 10 µM.
Consider NMCLVGDYWPSCQI [IL-2Rβ ligand SEQ ID NO: 169], for which, in assay [1], the IC50 was less than 10 µM.
In turn, CPSMLQGPERTWVC [IL-2Rγc ligand SEQ ID NO: 266] had an IC50 in assay [2] of less than 10 µM.
On to CGMAIGDLCMWT [IL-2Rβ ligand SEQ ID NO: 1084], for which, in assay [1], the IC50 is less than 10 µM.
Molecule DLSDLSTFWLSQ (not fully specified, Family 3; also called 248 or 1051) [IL-2Rγc ligand SEQ ID NO: 1051] displayed an IC50 in assay [2] of less than 10 µM.
Turning to RTCTEWENVVLCWV (not fully specified; cysteine pairing not given here) [IL-2Rγc ligand SEQ ID NO: 202], the IC50 in assay [2] is less than 10 µM.
Turning to MCWLEWGEWVGSCL [IL-2Rγc ligand SEQ ID NO: 236], the IC50 in assay [2] was less than 10 µM.
Turning to RWGDVGDLLMPL [IL-2Rβ ligand SEQ ID NO: 1043], the IC50 in assay [1] is less than 10 µM.
In the case of DCSMWEGVELCW (also called Peptide F) [IL-2Rγc ligand SEQ ID NO: 224], the IC50 in assay [2] is less than 10 µM.
With SLLKCYNASTCASVF [IL-2Rγc ligand SEQ ID NO: 948], the IC50 in assay [2] was less than 10 µM.
In assay [1], QICDVGQWWPDCQV [IL-2Rβ ligand SEQ ID NO: 170] returned an IC50 of less than 10 µM.
On to CCYQAMVGDLCDFC [IL-2Rβ ligand SEQ ID NO: 83], for which, in assay [1], the concentration for half-maximal inhibition (IC50) is less than 10 µM.

By IC50 is commonly meant the concentration that gives 50% inhibition. Higher therefore signals weaker potency.
